Measured values published in US20040233833.
“And” between values parts separate entries of the source, which are not always exact repeats. Equal entries are not always repeated.

What was measured:
REGγ(K188E) = REGγ(K188E) (UniProt P61289)
REGγ(K188N) = REGγ(K188N) (UniProt P61289)
REGγ(K188C) = REGγ(K188C) (UniProt P61289)
REGγ(K188R) = REGγ(K188R) (UniProt P61289)
REGγ(K188F) = REGγ(K188F) (UniProt P61289)
REGα/β = REGα/β (UniProt Q06323)
REGγ(K188H) = REGγ(K188H) (UniProt P61289)
REGγ (wild-type) = REGγ (wild-type) (UniProt P61289)
REGγ (wild-type), sequence (P61289 whole entry): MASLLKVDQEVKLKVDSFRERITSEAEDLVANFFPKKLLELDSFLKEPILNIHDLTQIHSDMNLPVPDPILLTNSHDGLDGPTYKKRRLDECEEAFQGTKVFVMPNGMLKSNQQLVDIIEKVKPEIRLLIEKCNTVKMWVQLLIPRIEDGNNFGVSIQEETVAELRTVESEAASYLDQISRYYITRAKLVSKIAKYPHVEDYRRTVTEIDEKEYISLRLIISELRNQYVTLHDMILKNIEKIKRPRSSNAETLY

REGγ(K188I) = REGγ(K188I) (UniProt P61289)
REGγ(K188I), sequence (P61289 whole entry K188I): as the sequence (P61289 whole entry) above, with K188I counted along it

REGγ(K188D) = REGγ(K188D) (UniProt P61289)
REGγ(K188D), sequence (P61289 whole entry K188D): as the sequence (P61289 whole entry) above, with K188D counted along it

REGγ(K188Q) = REGγ(K188Q) (UniProt P61289)
REGγ(K188Q), sequence (P61289 whole entry K188Q): as the sequence (P61289 whole entry) above, with K188Q counted along it

REGγ(K188S) = REGγ(K188S) (UniProt P61289)
REGγ(K188S), sequence (P61289 whole entry K188S): as the sequence (P61289 whole entry) above, with K188S counted along it

REGγ(K188A) = REGγ(K188A) (UniProt P61289)
REGγ(K188A), sequence (P61289 whole entry K188A): as the sequence (P61289 whole entry) above, with K188A counted along it

REGγ(K188P) = REGγ(K188P) (UniProt P61289)
REGγ(K188P), sequence (P61289 whole entry K188P): as the sequence (P61289 whole entry) above, with K188P counted along it

REGα = REGα (UniProt Q06323)
REGα, sequence (Q06323 whole entry): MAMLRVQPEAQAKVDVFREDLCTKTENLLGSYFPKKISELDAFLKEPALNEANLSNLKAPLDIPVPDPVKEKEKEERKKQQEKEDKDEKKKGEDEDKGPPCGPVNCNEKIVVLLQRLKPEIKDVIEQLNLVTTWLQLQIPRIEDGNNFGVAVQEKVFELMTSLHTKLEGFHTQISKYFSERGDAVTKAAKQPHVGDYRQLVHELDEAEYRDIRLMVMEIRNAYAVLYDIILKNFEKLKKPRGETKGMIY

REGγ(K188E), sequence (P61289 whole entry K188E): as the sequence (P61289 whole entry) above, with K188E counted along it
REGγ(K188C), sequence (P61289 whole entry K188C): as the sequence (P61289 whole entry) above, with K188C counted along it
REGγ(K188N), sequence (P61289 whole entry K188N): as the sequence (P61289 whole entry) above, with K188N counted along it
REGγ(K188H), sequence (P61289 whole entry K188H): as the sequence (P61289 whole entry) above, with K188H counted along it
REGγ(K188F), sequence (P61289 whole entry K188F): as the sequence (P61289 whole entry) above, with K188F counted along it
REGα/β, sequence (Q06323 whole entry, chain 1 of 2): as the sequence (Q06323 whole entry) above
REGα/β, sequence (chain, as listed by the source, chain 2 of 2): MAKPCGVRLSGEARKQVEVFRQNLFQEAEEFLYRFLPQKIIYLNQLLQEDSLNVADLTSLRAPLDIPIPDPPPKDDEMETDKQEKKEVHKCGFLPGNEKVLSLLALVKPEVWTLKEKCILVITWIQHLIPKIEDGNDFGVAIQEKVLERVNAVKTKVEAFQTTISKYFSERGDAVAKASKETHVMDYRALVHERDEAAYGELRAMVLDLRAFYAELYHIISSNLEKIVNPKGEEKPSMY
REGγ(K188R), sequence (P61289 whole entry K188R): as the sequence (P61289 whole entry) above, with K188R counted along it

**Q.** What does the source list for “20S proteasome (human red blood cell proteasomes)”?
**A.** % Degraded, substrate F1-EPQPQ (SEQ ID NO: 15), 5 hr (REGγ(K188E)): 80%; % Degraded, substrate F1-KSQPQ (SEQ ID NO: 16), 5 hr (REGγ(K188E)): 80%; % Degraded, substrate F1-QHQ, 5 hr (REGγ(K188E)): 50%; % Degraded, substrate F1-QPQ, 5 hr (REGγ(K188E)): 50%; % Degraded, substrate F1-QQQ, 5 hr (REGγ(K188E)): > 95%; Stimulation of cleavage (x-fold), AAF-MCA (REGγ(K188E)): 4 x-fold; Stimulation of cleavage (x-fold), DEVD(SEQ ID NO: 8)-MCA (REGγ(K188E)): 8 x-fold; Stimulation of cleavage (x-fold), FSR-MCA (REGγ(K188E)): 7 x-fold; Stimulation of cleavage (x-fold), IEGR(SEQ ID NO: 5)-MCA (REGγ(K188E)): 2 x-fold; Stimulation of cleavage (x-fold), IETD(SEQ ID NO: 6)-MCA (REGγ(K188E)): 21 x-fold; Stimulation of cleavage (x-fold), LGHD(SEQ ID NO: 7)-MCA (REGγ(K188E)): 10 x-fold; Stimulation of cleavage (x-fold), LLE-βNA (REGγ(K188E)): 9 x-fold; Stimulation of cleavage (x-fold), LLVY(SEQ ID NO: 1)-MCA (REGγ(K188E)): 14 x-fold; Stimulation of cleavage (x-fold), LLVY-MCA (REGγ(K188E)): 14 x-fold; Stimulation of cleavage (x-fold), LRR-MCA (REGγ(K188E)): 15 x-fold; Stimulation of cleavage (x-fold), LY-MCA (REGγ(K188E)): 3 x-fold; Stimulation of cleavage (x-fold), VLK-MCA (REGγ(K188E)): 6 x-fold; Stimulation of cleavage (x-fold), YVAD(SEQ ID NO: 9)-MCA (REGγ(K188E)): 7 x-fold; hydrolysis of the 21-residue peptide P21 by the proteasome (HPLC) (REGγ(K188E)): REGγ(K188E or D) and REGα markedly increased sunstrate consumption; Stimulation of cleavage (x-fold), LLE-βNA (REGγ(K188N)): 5 x-fold; Stimulation of cleavage (x-fold), LLVY-MCA (REGγ(K188N)): 5 x-fold; Stimulation of cleavage (x-fold), LRR-MCA (REGγ(K188N)): 14 x-fold; Stimulation of cleavage (x-fold), LLE-βNA (REGγ(K188C)): 5 x-fold; Stimulation of cleavage (x-fold), LLVY-MCA (REGγ(K188C)): 6 x-fold; Stimulation of cleavage (x-fold), LRR-MCA (REGγ(K188C)): 13 x-fold; Stimulation of cleavage (x-fold), LLE-βNA (REGγ(K188R)): 0.7 x-fold; Stimulation of cleavage (x-fold), LLVY-MCA (REGγ(K188R)): 0.7 x-fold; Stimulation of cleavage (x-fold), LRR-MCA (REGγ(K188R)): 10 x-fold; Stimulation of cleavage (x-fold), LLE-βNA (REGγ(K188F)): 4 x-fold; Stimulation of cleavage (x-fold), LLVY-MCA (REGγ(K188F)): 4 x-fold; Stimulation of cleavage (x-fold), LRR-MCA (REGγ(K188F)): 13 x-fold; % Degraded, substrate F1-EPQPQ (SEQ ID NO: 15), 5 hr (REGα/β): 55%; % Degraded, substrate F1-KSQPQ (SEQ ID NO: 16), 5 hr (REGα/β): 85%; % Degraded, substrate F1-QHQ, 5 hr (REGα/β): 80%; % Degraded, substrate F1-QPQ, 5 hr (REGα/β): 85%; % Degraded, substrate F1-QQQ, 5 hr (REGα/β): 85%; Stimulation of cleavage (x-fold), LLE-βNA (REGγ(K188H)): 4 x-fold; Stimulation of cleavage (x-fold), LLVY-MCA (REGγ(K188H)): 5 x-fold; Stimulation of cleavage (x-fold), LRR-MCA (REGγ(K188H)): 14 x-fold; % Degraded, substrate F1-EPQPQ (SEQ ID NO: 15), 5 hr (REGγ (wild-type)): 5%; % Degraded, substrate F1-KSQPQ (SEQ ID NO: 16), 5 hr (REGγ (wild-type)): 15%; % Degraded, substrate F1-QHQ, 5 hr (REGγ (wild-type)): 5%; % Degraded, substrate F1-QPQ, 5 hr (REGγ (wild-type)): 5%; % Degraded, substrate F1-QQQ, 5 hr (REGγ (wild-type)): 15%; Stimulation of cleavage (x-fold), AAF-MCA (REGγ (wild-type)): 1 x-fold; Stimulation of cleavage (x-fold), DEVD(SEQ ID NO: 8)-MCA (REGγ (wild-type)): 2 x-fold; Stimulation of cleavage (x-fold), FSR-MCA (REGγ (wild-type)): 7 x-fold; Stimulation of cleavage (x-fold), IEGR(SEQ ID NO: 5)-MCA (REGγ (wild-type)): 1 x-fold; Stimulation of cleavage (x-fold), IETD(SEQ ID NO: 6)-MCA (REGγ (wild-type)): 1 x-fold; Stimulation of cleavage (x-fold), LGHD(SEQ ID NO: 7)-MCA (REGγ (wild-type)): 1 x-fold; Stimulation of cleavage (x-fold), LLE-βNA (REGγ (wild-type)): 0.6 x-fold; Stimulation of cleavage (x-fold), LLVY(SEQ ID NO: 1)-MCA (REGγ (wild-type)): 0.4 x-fold; Stimulation of cleavage (x-fold), LLVY-MCA (REGγ (wild-type)): 0.4 x-fold; Stimulation of cleavage (x-fold), LRR-MCA (REGγ (wild-type)): 12 x-fold and 11 x-fold; Stimulation of cleavage (x-fold), LY-MCA (REGγ (wild-type)): 2 x-fold; Stimulation of cleavage (x-fold), VLK-MCA (REGγ (wild-type)): 5 x-fold; Stimulation of cleavage (x-fold), YVAD(SEQ ID NO: 9)-MCA (REGγ (wild-type)): 0.9 x-fold; hydrolysis of the 21-residue peptide P21 by the proteasome (HPLC) (REGγ (wild-type)): Wild-type REGγ decreased hydrolysis of P21 by the proteasome; Stimulation of cleavage (x-fold), LLE-βNA (REGγ(K188I)): 3 x-fold; Stimulation of cleavage (x-fold), LLVY-MCA (REGγ(K188I)): 2 x-fold; Stimulation of cleavage (x-fold), LRR-MCA (REGγ(K188I)): 12 x-fold; Stimulation of cleavage (x-fold), AAF-MCA (REGγ(K188D)): 4 x-fold; Stimulation of cleavage (x-fold), DEVD(SEQ ID NO: 8)-MCA (REGγ(K188D)): 9 x-fold; Stimulation of cleavage (x-fold), FSR-MCA (REGγ(K188D)): 7 x-fold; Stimulation of cleavage (x-fold), IEGR(SEQ ID NO: 5)-MCA (REGγ(K188D)): 2 x-fold; Stimulation of cleavage (x-fold), IETD(SEQ ID NO: 6)-MCA (REGγ(K188D)): 26 x-fold; Stimulation of cleavage (x-fold), LGHD(SEQ ID NO: 7)-MCA (REGγ(K188D)): 11 x-fold; Stimulation of cleavage (x-fold), LLE-βNA (REGγ(K188D)): 9 x-fold; Stimulation of cleavage (x-fold), LLVY(SEQ ID NO: 1)-MCA (REGγ(K188D)): 14 x-fold; Stimulation of cleavage (x-fold), LLVY-MCA (REGγ(K188D)): 14 x-fold; Stimulation of cleavage (x-fold), LRR-MCA (REGγ(K188D)): 15 x-fold; Stimulation of cleavage (x-fold), LY-MCA (REGγ(K188D)): 3 x-fold; Stimulation of cleavage (x-fold), VLK-MCA (REGγ(K188D)): 6 x-fold; Stimulation of cleavage (x-fold), YVAD(SEQ ID NO: 9)-MCA (REGγ(K188D)): 8 x-fold; hydrolysis of the 21-residue peptide P21 by the proteasome (HPLC) (REGγ(K188D)): REGγ(K188E or D) and REGα markedly increased sunstrate consumption; Stimulation of cleavage (x-fold), LLE-βNA (REGγ(K188Q)): 5 x-fold; Stimulation of cleavage (x-fold), LLVY-MCA (REGγ(K188Q)): 5 x-fold; Stimulation of cleavage (x-fold), LRR-MCA (REGγ(K188Q)): 14 x-fold; Stimulation of cleavage (x-fold), LLE-βNA (REGγ(K188S)): 3 x-fold; Stimulation of cleavage (x-fold), LLVY-MCA (REGγ(K188S)): 3 x-fold; Stimulation of cleavage (x-fold), LRR-MCA (REGγ(K188S)): 14 x-fold; Stimulation of cleavage (x-fold), LLE-βNA (REGγ(K188A)): 6 x-fold; Stimulation of cleavage (x-fold), LLVY-MCA (REGγ(K188A)): 6 x-fold; Stimulation of cleavage (x-fold), LRR-MCA (REGγ(K188A)): 13 x-fold; Stimulation of cleavage (x-fold), LLE-βNA (REGγ(K188P)): 1 x-fold; Stimulation of cleavage (x-fold), LLVY-MCA (REGγ(K188P)): 1 x-fold; Stimulation of cleavage (x-fold), LRR-MCA (REGγ(K188P)): 12 x-fold; Stimulation of cleavage (x-fold), AAF-MCA (REGα): 6 x-fold; Stimulation of cleavage (x-fold), DEVD(SEQ ID NO: 8)-MCA (REGα): 10 x-fold; Stimulation of cleavage (x-fold), FSR-MCA (REGα): 10 x-fold; Stimulation of cleavage (x-fold), IEGR(SEQ ID NO: 5)-MCA (REGα): 3 x-fold; Stimulation of cleavage (x-fold), IETD(SEQ ID NO: 6)-MCA (REGα): 30 x-fold; Stimulation of cleavage (x-fold), LGHD(SEQ ID NO: 7)-MCA (REGα): 11 x-fold; Stimulation of cleavage (x-fold), LLE-βNA (REGα): 9 x-fold; Stimulation of cleavage (x-fold), LLVY(SEQ ID NO: 1)-MCA (REGα): 16 x-fold; Stimulation of cleavage (x-fold), LLVY-MCA (REGα): 16 x-fold; Stimulation of cleavage (x-fold), LRR-MCA (REGα): 16 x-fold; Stimulation of cleavage (x-fold), LY-MCA (REGα): 5 x-fold; Stimulation of cleavage (x-fold), VLK-MCA (REGα): 7 x-fold; Stimulation of cleavage (x-fold), YVAD(SEQ ID NO: 9)-MCA (REGα): 9 x-fold; hydrolysis of the 21-residue peptide P21 by the proteasome (HPLC) (REGα): REGγ(K188E or D) and REGα markedly increased sunstrate consumption
